In this experiment the target is Yeast wild-type Mlh1-Mlh3 (yeast (S. cerevisiae)) (UniProt P38920).

B1: Yeast wild-type Mlh1-Mlh3 (complex)
chain 1: MSLRIKALDASVVNKIAAGEIIISPVNALKEMMENSIDANATMIDILVKEGGIKVLQITDNGSGINKADLPILCERFTTSKLQKFEDLSQIQTYGFRGEALASISHVARVTVTTKVKEDRCAWRVSYAEGKMLESPKPVAGKDGTTILVEDLFFNIPSRLRALRSHNDEYSKILDVVGRYAIHSKDIGFSCKKFGDSNYSLSVKPSYTVQDRIRTVFNKSVASNLITFHISKVEDLNLESVDGKVCNLNFISKKSISPIFFINNRLVTCDLLRRALNSVYSNYLPKGNRPFIYLGIVIDPAAVDVNVHPTKREVRFLSQDEIIEKIANQLHAELSAIDTSRTFKASSISTNKPESLIPFNDTIESDRNRKSLRQAQVVENSYTTANSQLRKAKRQENKLVRIDASQAKITSFLSSSQQFNFEGSSTKRQLSEPKVTNVSHSQEAEKLTLNESEQPRDANTINDNDLKDQPKKKQKLGDYKVPSIADDEKNALPISKDGYIRVPKERVNVNLTSIKKLREKVDDSIHRELTDIFANLNYVGVVDEERRLAAIQHDLKLFLIDYGSVCYELFYQIGLTDFANFGKINLQSTNVSDDIVLYNLLSEFDELNDDASKEKIISKIWDMSSMLNEYYSIELVNDGLDNDLKSVKLKSLPLLLKGYIPSLVKLPFFIYRLGKEVDWEDEQECLDGILREIALLYIPDMVPKVDTSDASLSEDEKAQFINRKEHISSLLEHVLFPCIKRRFLAPRHILKDVVEIANLPDLYKVFERC
chain 2: MSQHIRKLDSDVSERLKSQACTVSLASAVREIVQNSVDAHATTIDVMIDLPNLSFAVYDDGIGLTRSDLNILATQNYTSKIRKMNDLVTMKTYGYRGDALYSISNVSNLFVCSKKKDYNSAWMRKFPSKSVMLSENTILPIDPFWKICPWSRTKSGTVVIVEDMLYNLPVRRRILKEEPPFKTFNTIKADMLQILVMHPMISLNVQYTDKLRINTEVLFRSKNITEGLTKHQQMSQVLRNVFGAIIPPDMLKKVSLKFNEYQIEGIISKMPVGLKDLQFIYINGRRYADSAFQGYVDSLFQAQDFGEKGMSLLKTKSVGKPYRSHPVFILDVRCPQTIDDLLQDPAKKIVKPSHIRTIEPLIVKTIRSFLTFQGYLTPDKSDSSFEIVNCSQKTATLPDSRIQISKRNQVLNSKMKIARINSYIGKPAVNGCRINNSTINYEKIKNIRIDGQKSRLRNKLSSRPYDSGFTEDYDSIGKTITDFSISRSVLAKYEVINQVDKKFILIRCLDQSIHNCPLLVLVDQHACDERIRLEELFYSLLTEVVTGTFVARDLKDCCIEVDRTEADLFKHYQSEFKKWGIGYETIEGTMETSLLEIKTLPEMLTSKYNGDKDYLKMVLLQHAHDLKDFKKLPMDLSHFENYTSVDKLYWWKYSSCVPTVFHEILNSKACRSAVMFGDELTRQECIILISKLSRCHNPFECAHGRPSMVPIAELK
With B1, the endonuclease activity on circular dsDNA: ratio of Mlh1-Mlh3 to 2.7 kb plasmid at the optimum of activity (Mlh1-Mlh3 per 2.7 kb plasmid) was 100.

These data come from paper PMC5409509.
